The text below walks through data of patent US20110033951, “ASSAY METHOD AND KIT FOR NUCLEIC ACID BINDING PROTEIN” (Hiroshima University, published 2011).

Series [1] addresses T1, NF-kappaB p50 (Homo sapiens, UniProt P19838 P19838:1-433). Nature of the series: competition; decoy without NF-kB site did not compete. As to conditions: tags: Promega; chain copies: 2. On the procedure: (§1) The fluorescence value was measured using a real-time PCR apparatus Rotor-Gene 2000 (Corbett Life Science).
Series [2] concerns the target T1, NF-kappaB p50. Nature of the series: competition; decoy restored strand exchange. To be noted: tags: Promega; chain copies: 2. On the procedure: as §1
Series [3] concerns the target T2, SP1 (Homo sapiens, UniProt P08047 P08047:2-785). The series can be described thus: competition; NF-kB decoy did not affect SP1/DNA signal. To be noted: tags: Promega. On the procedure:
(§2) A mixed solution of 31F/42 and 05C/08 (40 fmol each), 800 fmol of the decoy (NF01/02 or SP01/02), a solution of a protein mixture (2.5 pmol of recombinant human SP1 and 0.125 pmol of recombinant human NFκB p50) were mixed into a reaction solution (10 mM HEPES-NaOH pH 7.9, 50 mM KCl, 0.1 mM EDTA, 5 mM DTT, 10% glycerol, 0.05% IGEPAL CA-630, 15 μL) and reacted at 25° C. for 30 minutes. A mixed solution of 32D/41 and 06B/07 (80 fmol each) was added thereto, and 50 μL of the resulting mixture was then reacted at 25° C. for 120 minutes. The fluorescence values of fluorescein and Cy3 were measured using a fluorescence plate reader Ultra (Tecan Group Ltd.). The fluorescein was excited at 485 nm, and its fluorescence was measured at 535 nm. The Cy3 was excited at 535 nm and its fluorescence was measured at 595 nm.

Series [4] concerns the target T2, SP1. Nature of the series: competition; decoy lowered only SP1/DNA signal. As to conditions: tags: Promega. As to the method:
as §2

In series [5] the target is T1, NF-kappaB p50. Nature of the series: competition; SP1 decoy did not affect NF-kB/DNA signal. To be noted: tags: Promega; chain copies: 2. On the procedure: as §2

T1 sequence (P19838 1-433, one chain of several): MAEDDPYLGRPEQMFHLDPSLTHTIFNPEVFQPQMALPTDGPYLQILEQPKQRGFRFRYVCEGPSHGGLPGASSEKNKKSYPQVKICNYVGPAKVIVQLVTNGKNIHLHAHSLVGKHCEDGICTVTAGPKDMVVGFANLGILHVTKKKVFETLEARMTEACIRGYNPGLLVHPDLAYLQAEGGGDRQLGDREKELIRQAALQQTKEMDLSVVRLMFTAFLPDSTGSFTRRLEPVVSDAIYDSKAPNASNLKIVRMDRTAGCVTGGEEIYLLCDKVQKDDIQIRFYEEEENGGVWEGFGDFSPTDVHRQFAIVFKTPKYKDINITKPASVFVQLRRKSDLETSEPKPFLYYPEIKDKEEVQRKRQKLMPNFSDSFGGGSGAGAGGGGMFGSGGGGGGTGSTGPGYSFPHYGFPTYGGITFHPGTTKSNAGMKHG
T2 sequence (P08047 2-785, one chain of several): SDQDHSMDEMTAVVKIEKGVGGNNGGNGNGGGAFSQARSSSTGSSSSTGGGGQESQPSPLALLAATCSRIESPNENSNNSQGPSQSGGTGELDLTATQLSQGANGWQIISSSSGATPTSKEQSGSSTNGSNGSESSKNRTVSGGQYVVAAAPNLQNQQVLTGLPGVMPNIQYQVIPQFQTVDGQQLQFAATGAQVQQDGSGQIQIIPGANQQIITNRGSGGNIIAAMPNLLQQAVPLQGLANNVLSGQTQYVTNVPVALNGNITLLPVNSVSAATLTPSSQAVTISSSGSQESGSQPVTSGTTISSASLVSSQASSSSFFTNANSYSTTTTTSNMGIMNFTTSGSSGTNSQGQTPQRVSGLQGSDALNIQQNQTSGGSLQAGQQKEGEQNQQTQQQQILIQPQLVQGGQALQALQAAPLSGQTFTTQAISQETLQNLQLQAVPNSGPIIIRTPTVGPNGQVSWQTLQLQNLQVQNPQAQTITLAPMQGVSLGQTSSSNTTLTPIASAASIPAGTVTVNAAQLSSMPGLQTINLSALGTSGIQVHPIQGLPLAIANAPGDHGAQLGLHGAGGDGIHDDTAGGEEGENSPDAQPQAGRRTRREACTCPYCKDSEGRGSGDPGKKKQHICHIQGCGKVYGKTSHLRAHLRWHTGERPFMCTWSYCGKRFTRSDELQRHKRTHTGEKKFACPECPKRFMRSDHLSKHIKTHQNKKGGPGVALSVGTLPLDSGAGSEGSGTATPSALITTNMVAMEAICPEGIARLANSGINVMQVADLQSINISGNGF

B1: APcpt decoy (dsDNA)
DNA 1: GGTGTCATGAGTCAGCTCGGAG
DNA 2: CTCCGAGCTGACTCATGACACC
Take B1: the binding result with NF-kappaB p50 [1] is on record as “no binding”.

B2: NFcpt decoy (NF01/02) (dsDNA)
DNA 1: GCACTAGGGACTTTCCGCCACG
DNA 2: CGTGGCGGAAAGTCCCTAGTGC
Consider B2, for which the binding result with NF-kappaB p50 [2] is on record as “binds”; in the series with SP1 [3], “no binding”.

B3: SP01/02 decoy (dsDNA)
DNA 1: TCGAGCGGGGCGGGGCGACGAA
DNA 2: TTCGTCGCCCCGCCCCGCTCGA
Consider B3, for which the binding result is given as “binds” with SP1 [4] and “no binding” with NF-kappaB p50 [5].
